Test results as given in patent US20190134195A1.

Molecular target: PDL1 on the surface of TC-1 cells (UniProt Q9EP73)
Assay: flow cytometry, staining of TC-1 tumor cells (background control)

Sequence of UniProt Q9EP73 (Q9EP73 19-290 limits assumed): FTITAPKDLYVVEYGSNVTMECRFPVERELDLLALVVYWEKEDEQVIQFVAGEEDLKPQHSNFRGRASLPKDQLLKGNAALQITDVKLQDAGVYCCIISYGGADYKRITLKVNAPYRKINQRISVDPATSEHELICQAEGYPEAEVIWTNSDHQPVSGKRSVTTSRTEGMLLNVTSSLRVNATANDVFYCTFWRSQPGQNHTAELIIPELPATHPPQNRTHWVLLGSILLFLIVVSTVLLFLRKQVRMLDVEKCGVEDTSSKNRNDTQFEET

PE-conjugated isotype control antibody was tested, and the median fluorescent intensity (MFI) was 184.
